Laboratory results taken from the RNAGym collection of RNA variant scans (doi:10.7554/elife.90254).

B1: OR4K15 (parent)
chain: GUUAACGGUCAUAGGCCAUGGAAACUAGGAGCACCAUUUCGCUGCCAGUGAAGAAAUGAACAAAGAAAAUCUGGGCCAGGCAGGCAUCAAAAGAAAUAGUCUUGCGCUCAACCAGAAAGUCUGUAAUCAUUUUAAGGGUA

Variants of: B1
Assay: self-cleavage, relative activity (ratio to wild type); higher = more cleavage; in vitro, sequencing; the parent is a self-cleaving ribozyme

Going from U9A U131C to C6U U19G, the self-cleavage rises from 0.4 to 0.77.

Going from G8A C77U to G8C U43C, the self-cleavage rises from 1.72 to 2.42.

Compared with A5U A86G, A5U U130C is lower in self-cleavage: 0.92 for the first, 0.85 for the second.

Compared with G7A A59G, U9A A92G is lower in self-cleavage: 1.46 for the first, 1.08 for the second.

Going from U9C A60G to U9C A60U, the self-cleavage rises from 1.41 to 1.9.

Compared with U9A A52C, A5G U87C is lower in self-cleavage: 2.25 for the first, 0.88 for the second.

Going from U9A A110G to U9C A110G, the self-cleavage falls from 0.22 to 0.15.

Going from A5U U100G to U9A A89U, the self-cleavage falls from 1.03 to 0.66.

Compared with G7A A66G, A5U A69G is lower in self-cleavage: 1.18 for the first, 0.36 for the second.

First: G7U A56G
Second: U9C A78U
The self-cleavage of the first is higher: 1.29 for the first, 0.56 for the second.

Going from U9C A78C to C6G U100C, the self-cleavage rises from 0.38 to 0.97.

Compared with U9C A68G, C6U U132A is lower in self-cleavage: 1.51 for the first, 0.56 for the second.

First: C6U U132C
Second: G7A C40U
The self-cleavage of the first is lower: 0.63 for the first, 1.81 for the second.

Compared with C6G U132C, C6U C46U is higher in self-cleavage: 0.79 for the first, 1.03 for the second.

Compared with G7A G44U, G8A U70C is lower in self-cleavage: 1.28 for the first, 1.22 for the second.

First: U9A U37C
Second: C6A A64G
The self-cleavage of the first is higher: 1.63 for the first, 1.24 for the second.

Going from U9C to U9A, the self-cleavage falls from 1.61 to 1.01.

Going from C6U to C6A, the self-cleavage rises from 0.75 to 1.28.

First: C6G
Second: A5U A91G
The self-cleavage of the first is higher: 1.83 for the first, 0.86 for the second.

First: A5U A91U
Second: G7A A78G
The self-cleavage of the first is higher: 1.64 for the first, 0.19 for the second.

Going from U9A G41A to G8A A55G, the self-cleavage rises from 1.34 to 2.14.

Going from A5G U132C to A5G U132A, the self-cleavage falls from 0.89 to 0.6.

Going from G7A A90G to G7A A69U, the self-cleavage rises from 1.26 to 1.79.

Going from C6A C10U to G7U A114G, the self-cleavage falls from 0.25 to 0.16.

First: G7U A86G
Second: A5U A24G
The self-cleavage of the first is higher: 1.64 for the first, 1.12 for the second.

First: G7U A95G
Second: A5U A11G
The self-cleavage of the first is lower: 1.43 for the first, 1.49 for the second.

Going from U9C A63U to G8A C32U, the self-cleavage rises from 1.83 to 2.12.

Going from A5U to G8A U120C, the self-cleavage rises from 1.1 to 1.57.

Going from G7A A140U to G7A A18G, the self-cleavage falls from 1.62 to 0.64.

Going from G7A A18C to C6U A110G, the self-cleavage falls from 1.98 to 0.19.

Going from C6U A94G to A5U A55U, the self-cleavage falls from 1.68 to 1.15.

First: C6U A116G
Second: C6U A66G
The self-cleavage of the first is lower: 0.34 for the first, 1.33 for the second.

First: U9A A36U
Second: U9A U103C
The self-cleavage of the first is higher: 1.2 for the first, 0.49 for the second.

First: U9A A27G
Second: G8A A129U
The self-cleavage of the first is lower: 0.47 for the first, 1.63 for the second.

Compared with G7A A82U, U9A A64G is higher in self-cleavage: 0.14 for the first, 1.1 for the second.

First: A5U A96G
Second: U9A A140U
The self-cleavage of the first is lower: 1.12 for the first, 1.31 for the second.

Going from G7C A47U to C6A A95G, the self-cleavage falls from 1.4 to 0.79.

Going from A5U A126U to U9C A98U, the self-cleavage rises from 0 to 1.32.

Compared with C6U U26A, U9C A116G is lower in self-cleavage: 0.53 for the first, 0.49 for the second.

First: U9C A116U
Second: U9A A114G
The self-cleavage of the first is higher: 0.55 for the first, 0.33 for the second.

Going from U9A A114U to A5G U131C, the self-cleavage rises from 0.07 to 0.56.

Compared with U9A C77A, G8A U49C is higher in self-cleavage: 0.08 for the first, 2.37 for the second.

First: G7U A67G
Second: G8C
The self-cleavage of the first is higher: 1.28 for the first, 1.16 for the second.

First: G8U
Second: G8A
The self-cleavage of the first is lower: 1.49 for the first, 1.61 for the second.

Compared with C6U A56G, G7A U72C is lower in self-cleavage: 0.64 for the first, 0.27 for the second.

Compared with C6U A64G, G7A U37C is higher in self-cleavage: 1.46 for the first, 2.58 for the second.

Going from A5G U103C to U9A U87C, the self-cleavage rises from 0.27 to 0.85.

Compared with U9C A13U, G7U U103C is lower in self-cleavage: 1.22 for the first, 0.65 for the second.

First: A5U U108C
Second: U9C A140G
The self-cleavage of the first is lower: 0.04 for the first, 1.33 for the second.

First: U9C A11U
Second: C6U A117U
The self-cleavage of the first is higher: 1.67 for the first, 1.1 for the second.

First: G8A U102C
Second: U9A A125G
The self-cleavage of the first is higher: 2.44 for the first, 0.76 for the second.

Compared with A5U A52G, G8A U133G is higher in self-cleavage: 1.18 for the first, 2.78 for the second.

Compared with U9C A22G, A5U A68G is lower in self-cleavage: 1.21 for the first, 0.82 for the second.

First: G8A A92G
Second: U9A U97A
The self-cleavage of the first is higher: 1.56 for the first, 1.03 for the second.

First: U9A C42A
Second: U9C A52G
The self-cleavage of the first is lower: 0.53 for the first, 1.63 for the second.

Going from U9C A52U to U9C A62U, the self-cleavage rises from 1.23 to 2.18.

Compared with U9C C77U, C6A U57C is lower in self-cleavage: 1.18 for the first, 0.36 for the second.

Compared with C6U A13G, U9A A22G is higher in self-cleavage: 1.29 for the first, 1.7 for the second.

Compared with U9A U139A, U9A A24C is lower in self-cleavage: 1.31 for the first, 0.99 for the second.

First: U9A A24G
Second: C6U U43C
The self-cleavage of the first is lower: 1.29 for the first, 1.58 for the second.

U9A U108A and A5U U97C are the same in self-cleavage: 0 for the first, 0 for the second.

Compared with G7U U39C, G7A U132C is higher in self-cleavage: 0.54 for the first, 1.2 for the second.

First: G7A A110G
Second: G7A A110C
The self-cleavage of the first is lower: 0.11 for the first, 0.23 for the second.

Going from G7A A92G to G7A A92U, the self-cleavage falls from 1.8 to 1.72.

First: C6U U57A
Second: A5U A47C
The self-cleavage of the first is lower: 0.77 for the first, 1.29 for the second.

First: U9A A59G
Second: U9A A59U
The self-cleavage of the first is lower: 1.12 for the first, 1.81 for the second.

Going from G7A U19C to U9A A96G, the self-cleavage rises from 1.14 to 1.16.

First: A5G U72C
Second: U9C A54G
The self-cleavage of the first is lower: 0.41 for the first, 1.53 for the second.

Going from A5U A78G to A5U A140G, the self-cleavage rises from 0.44 to 1.09.

Going from G8A A96G to A5U A89G, the self-cleavage falls from 1.97 to 1.15.

First: U9C C45U
Second: G7A A111G
The self-cleavage of the first is higher: 1.07 for the first, 0.03 for the second.

Going from A5U U127C to U9C A96G, the self-cleavage rises from 1.03 to 1.35.

Going from A5U U72A to G7U U57C, the self-cleavage rises from 0.62 to 1.41.

First: A5U A95U
Second: U9A A33G
The self-cleavage of the first is higher: 1.76 for the first, 0.9 for the second.

First: G8C A64G
Second: G7A A36U
The self-cleavage of the first is higher: 2.95 for the first, 1.54 for the second.

First: G7U A18U
Second: G8A U57A
The self-cleavage of the first is lower: 0.43 for the first, 2.18 for the second.

First: G7U U131C
Second: G7A U122C
The self-cleavage of the first is higher: 1.14 for the first, 0.84 for the second.

Compared with G8A A18G, A5U U103C is higher in self-cleavage: 0.78 for the first, 0.83 for the second.

Going from G7U U19C to G8A U19A, the self-cleavage rises from 1.79 to 1.92.

Going from U9C A51G to U9A A67U, the self-cleavage falls from 1.27 to 0.67.

Going from G7A A27G to U9A U122A, the self-cleavage falls from 1.3 to 1.22.

First: U9A U122C
Second: A5U A60C
The self-cleavage of the first is lower: 0.88 for the first, 1.78 for the second.

Compared with A5U A60G, U9A A90G is higher in self-cleavage: 0.99 for the first, 1.23 for the second.

G7U U108C showed a self-cleavage of 0.02.
